In US20230127248A1 (AILERON THERAPEUTICS, published 2023):
Bridge positions count the residues as written; N and C are the ends. Square brackets hold non-standard residues; d marks the D form. Phe(4-F) = N[C@@H](Cc1ccc(F)cc1)C(=O)O; R8 = C=CCCCCCC[C@@](C)(N)C(=O)O; hLeu = CC(C)CC[C@H](N)C(=O)O; S5 = C=CCCC[C@](C)(N)C(=O)O; Nle = CCCC[C@H](N)C(=O)O

B1: SP-809 (peptidomimetic macrocycle derived from the MCL-1/BCL-XL/BCL-2-binding helix of BIM) (peptide)
peptide: Ac-IWIAQALR[R8]IGDEFN[S5]YYARR-NH2
modifications: staple 9-16
SMILES: CC[C@H](C)[C@H](NC(C)=O)C(=O)N[C@@H](Cc1c[nH]c2ccccc12)C(=O)N[C@H](C(=O)N[C@@H](C)C(=O)N[C@@H](CCC(N)=O)C(=O)N[C@@H](C)C(=O)N[C@@H](CC(C)C)C(=O)N[C@@H](CCCNC(=N)N)C(=O)N[C@]1(C)CCCCCCC=CCCC[C@@](C)(C(=O)N[C@@H](Cc2ccc(O)cc2)C(=O)N[C@@H](Cc2ccc(O)cc2)C(=O)N[C@@H](C)C(=O)N[C@@H](CCCNC(=N)N)C(=O)N[C@@H](CCCNC(=N)N)C(N)=O)NC(=O)[C@H](CC(N)=O)NC(=O)[C@H](Cc2ccccc2)NC(=O)[C@H](CCC(=O)O)NC(=O)[C@H](CC(=O)O)NC(=O)CNC(=O)[C@H]([C@@H](C)CC)NC1=O)[C@@H](C)CC
notes: Stapled BIM BH3 peptide, 21 residues
B2: SP-815 (peptidomimetic macrocycle derived from the MCL-1/BCL-XL/BCL-2-binding helix of BIM) (peptide)
peptide: Ac-IWIAQALR[R8]IGDAFN[S5]YYA-NH2
modifications: staple 9-16
SMILES: CC[C@H](C)[C@H](NC(C)=O)C(=O)N[C@@H](Cc1c[nH]c2ccccc12)C(=O)N[C@H](C(=O)N[C@@H](C)C(=O)N[C@@H](CCC(N)=O)C(=O)N[C@@H](C)C(=O)N[C@@H](CC(C)C)C(=O)N[C@@H](CCCNC(=N)N)C(=O)N[C@]1(C)CCCCCCC=CCCC[C@@](C)(C(=O)N[C@@H](Cc2ccc(O)cc2)C(=O)N[C@@H](Cc2ccc(O)cc2)C(=O)N[C@@H](C)C(N)=O)NC(=O)[C@H](CC(N)=O)NC(=O)[C@H](Cc2ccccc2)NC(=O)[C@H](C)NC(=O)[C@H](CC(=O)O)NC(=O)CNC(=O)[C@H]([C@@H](C)CC)NC1=O)[C@@H](C)CC
notes: Stapled BIM BH3 peptide, 19 residues
B3: SP-962 (peptidomimetic macrocycle derived from the MCL-1/BCL-XL/BCL-2-binding helix of BIM) (peptide)
peptide: Ac-IWIAQALR[R8][hLeu]GDAFN[S5]Y[Phe(4-F)]A-NH2
modifications: staple 9-16
SMILES: CC[C@H](C)[C@H](NC(C)=O)C(=O)N[C@@H](Cc1c[nH]c2ccccc12)C(=O)N[C@H](C(=O)N[C@@H](C)C(=O)N[C@@H](CCC(N)=O)C(=O)N[C@@H](C)C(=O)N[C@@H](CC(C)C)C(=O)N[C@@H](CCCNC(=N)N)C(=O)N[C@]1(C)CCCCCCC=CCCC[C@@](C)(C(=O)N[C@@H](Cc2ccc(O)cc2)C(=O)N[C@@H](Cc2ccc(F)cc2)C(=O)N[C@@H](C)C(N)=O)NC(=O)[C@H](CC(N)=O)NC(=O)[C@H](Cc2ccccc2)NC(=O)[C@H](C)NC(=O)[C@H](CC(=O)O)NC(=O)CNC(=O)[C@H](CCC(C)C)NC1=O)[C@@H](C)CC
notes: as for B2
B4: SP-810 (peptidomimetic macrocycle derived from the MCL-1/BCL-XL/BCL-2-binding helix of BIM) (peptide)
peptide: Ac-IWIAQELR[R8]IGDEFN[S5]YYARR-NH2
modifications: staple 9-16
SMILES: CC[C@H](C)[C@H](NC(C)=O)C(=O)N[C@@H](Cc1c[nH]c2ccccc12)C(=O)N[C@H](C(=O)N[C@@H](C)C(=O)N[C@@H](CCC(N)=O)C(=O)N[C@@H](CCC(=O)O)C(=O)N[C@@H](CC(C)C)C(=O)N[C@@H](CCCNC(=N)N)C(=O)N[C@]1(C)CCCCCCC=CCCC[C@@](C)(C(=O)N[C@@H](Cc2ccc(O)cc2)C(=O)N[C@@H](Cc2ccc(O)cc2)C(=O)N[C@@H](C)C(=O)N[C@@H](CCCNC(=N)N)C(=O)N[C@@H](CCCNC(=N)N)C(N)=O)NC(=O)[C@H](CC(N)=O)NC(=O)[C@H](Cc2ccccc2)NC(=O)[C@H](CCC(=O)O)NC(=O)[C@H](CC(=O)O)NC(=O)CNC(=O)[C@H]([C@@H](C)CC)NC1=O)[C@@H](C)CC
notes: as for B1
B5: SP68: Ac-LTF$r8AYWAQL$AANleA-NH2 (peptide)
peptide: Ac-LTF[R8]AYWAQL[S5]AA[Nle]A-NH2
modifications: staple 4-11
notes: i, i+7 stapled p53-derived macrocycle
B6: SP590 (Table 1b): Ac-LTF$rAYWAQL$A-NH2 (peptide)
peptide: Ac-LTF[R8]AYWAQL[S5]A-NH2
modifications: staple 4-11
SMILES: CC(=O)N[C@@H](CC(C)C)C(=O)N[C@H](C(=O)N[C@@H](Cc1ccccc1)C(=O)N[C@]1(C)CCCCCCC=CCCC[C@@](C)(C(=O)N[C@@H](C)C(N)=O)NC(=O)[C@H](CC(C)C)NC(=O)[C@H](CCC(N)=O)NC(=O)[C@H](C)NC(=O)[C@H](Cc2c[nH]c3ccccc23)NC(=O)[C@H](Cc2ccc(O)cc2)NC(=O)[C@H](C)NC1=O)[C@@H](C)O
B7: SP317: Ac-LTF$r8AYWAQL$AAAAAAa-NH2 (iso1) (peptide)
peptide: Ac-LTF[R8]AYWAQL[S5]AAAAAA[dA]-NH2
modifications: staple 4-11; also: single isomer iso1

target: T1, MCL-1 (Myeloid cell leukemia 1) (UniProt Q07820 172-327, limits assumed); assay: IC50 against MCL-1, Table 4b; assay format not stated
T1 construct: Construct used in the IC50 assay is not described
T1 sequence (Q07820 172-327 limits assumed): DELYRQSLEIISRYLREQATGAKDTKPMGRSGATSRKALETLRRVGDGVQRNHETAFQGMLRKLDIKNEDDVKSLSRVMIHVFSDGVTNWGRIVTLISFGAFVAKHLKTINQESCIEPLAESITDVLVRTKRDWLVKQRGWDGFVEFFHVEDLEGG

Binder	IC50 [nM]
B1	10.6
B2	8.4
B3	27

target: T2, BCL-XL (UniProt Q07817 1-209); assay: IC50 against BCL-XL, Table 4b; assay format not stated
T2 construct: Construct used in the IC50 assay is not described; also called BCL-X1
T2 sequence (Q07817 1-209): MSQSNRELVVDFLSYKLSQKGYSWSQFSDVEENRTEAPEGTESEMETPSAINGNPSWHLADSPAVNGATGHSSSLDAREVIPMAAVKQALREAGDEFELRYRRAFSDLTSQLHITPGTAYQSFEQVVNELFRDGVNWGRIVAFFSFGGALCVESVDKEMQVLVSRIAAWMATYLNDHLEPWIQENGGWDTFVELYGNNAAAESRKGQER

Binder	IC50 [nM]
B4	9.2
B1	3.9
B2	22.4
B3	13

target: T3, MDM2 (human, UniProt Q00987 1-138, limits assumed); assay: IC50 against MDM2; assay format and competitor not described with the table
T3 construct: also called HDM2; human double minute 2
T3 sequence (Q00987 1-138 limits assumed): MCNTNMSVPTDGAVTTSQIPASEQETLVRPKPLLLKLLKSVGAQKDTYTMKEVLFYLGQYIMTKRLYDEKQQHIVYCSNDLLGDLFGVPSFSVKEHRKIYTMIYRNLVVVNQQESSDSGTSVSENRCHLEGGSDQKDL

Binder	IC50 [nM]
B5	29
B6	141
B7	10
